Assay results: patent US20210388083A1

Columns and labels:
[1] = biological target: histidine-tagged human FcγRIIIa-158V (human) (UniProt P08637); assay: BLI (Octet Red384); His-tagged receptor on anti-Penta-HIS biosensor; antibody 15.6-500 nM, PBS pH 7.2; global 1:1 fit
[2] = biological target: histidine-tagged human FcRn (human) (UniProt P55899); assay: BLI (Octet Red384); His-tagged receptor (row FcRn) on anti-Penta-HIS biosensor; antibody 75-1000 nM, PBS pH 5.8; global 1:1 fit
[3] = biological target: histidine-tagged mouse FcRn (mouse) (UniProt Q61559); assay: BLI (Octet Red384); His-tagged receptor (row moFcRn) on anti-Penta-HIS biosensor; antibody 75-1000 nM, PBS pH 5.8; global 1:1 fit
[4] = biological target: histidine-tagged mouse FcRn (mouse) (UniProt Q61559); assay: BLI (Octet Red384); His-tagged receptor on anti-Penta-HIS biosensor; antibody 75-1000 nM, PBS pH 5.8; global 1:1 fit
[5] = biological target: histidine-tagged human FcRn (human) (UniProt P55899); assay: as above
[6] = biological target: histidine-tagged mouse FcγRIV (mouse); assay: BLI (Octet Red384); His-tagged receptor (row moFcγRIV) on anti-Penta-HIS biosensor; antibody 125-4000 nM, PBS pH 7.2; global 1:1 fit
[7] = biological target: histidine-tagged human FcγRIIIa-158F (human) (UniProt P08637); assay: BLI (Octet Red384); His-tagged receptor (row FcγRIIIA (F158)) on anti-Penta-HIS biosensor; antibody 125-4000 nM, PBS pH 7.2; global 1:1 fit
[8] = biological target: histidine-tagged human FcγRIIIa-158V (human) (UniProt P08637); assay: BLI (Octet Red384); His-tagged receptor (row FcγRIIIA (V158)) on anti-Penta-HIS biosensor; antibody 125-4000 nM, PBS pH 7.2; global 1:1 fit
[9] = biological target: histidine-tagged human FcγRIIIa-158F (human) (UniProt P08637); assay: BLI (Octet Red384); His-tagged receptor on anti-Penta-HIS biosensor; antibody 125-4000 nM, PBS pH 7.2; global 1:1 fit
[10] = biological target: histidine-tagged human FcγRIIIa-158V (human) (UniProt P08637); assay: as above
[11] = biological target: histidine-tagged mouse FcγRIV (mouse); assay: as above

Substance | Kd [1] [nM] | koff [1] [s⁻¹] | kon [1] [M⁻¹ s⁻¹] | Kd [2] [nM] | Kd [3] [nM] | Kd [4] [nM] | Kd [5] [nM] | Kd [6] [nM] | Kd [7] [nM] | Kd [8] [nM] | Kd [9] [nM] | Kd [10] [nM] | Kd [11] [nM]
antigen-binding molecule specific for HER3 comprising GASD Fc, human IgG1 (G1m3 allotype) (antibody) | 115 | 0.017 | 150000 | – | – | – | – | – | – | – | – | – | –
antigen-binding molecule specific for HER3 comprising GASDALIE Fc, human IgG1 (G1m3 allotype) (antibody) | 24 | 0.0052 | 220000 | – | – | – | – | – | – | – | – | – | –
antigen-binding molecule specific for HER3 comprising GASDIE Fc, human IgG1 (G1m3 allotype) (antibody) | 35 | 0.0072 | 200000 | – | – | – | – | – | – | – | – | – | –
antigen-binding molecule specific for HER3 comprising Wildtype (WT) Fc, human IgG1 (G1m3 allotype) (antibody) | 317 | – | – | 33.7 | 15.1 | 15.1 | 33.7 | 544 | 2230 | 661 | 2230 | 661 | 544
